From the Immune Epitope Database (IEDB)

What follows are sequences tested against HLA-A*02:06 (assay: IEDB peptide-MHC binding, purified MHC/competitive/radioactivity; ≥ and ≤ were set here for values at or beyond the usual limits of such assays). Details: source organism: Hepacivirus hominis.

Sequence	IC50
QMWKCLIRL	0.218 µM

Same assay, conditions: source organism: Influenza A virus

Sequence	IC50
NMLSTVLGV	0.071 µM

Same assay, conditions: source organism: SARS-CoV1

Sequence	IC50
TLLCVLAAL	0.008 µM
FLNRFTTTL	0.058 µM

Same assay, conditions: source organism: Vaccinia virus WR

Sequence	IC50
KLRSSPPIPM	2.21 µM
YTRPEIDVL	0.154 µM
RIEDMFLTSV	0.168 µM
SMHFYGWSL	0.383 µM

These sequences were tested against HLA-A*02:02 in the same assay as above. Details: source organism: Hepacivirus hominis.

Sequence	IC50
QMWKCLIRL	0.175 µM

Same assay, conditions: source organism: SARS-CoV1

Sequence	IC50
TLLCVLAAL	0.0081 µM
FLNRFTTTL	0.00066 µM

Same assay, conditions: source organism: Vaccinia virus WR

Sequence	IC50
KLRSSPPIPM	0.058 µM
YTRPEIDVL	0.115 µM
RIEDMFLTSV	0.548 µM

These sequences were tested against HLA-A*02:01 in the same assay as above. Details: source organism: Vaccinia virus WR.

Sequence	IC50
SMHFYGWSL	0.192 µM
MLYQLLEAV	0.0082 µM

What follows are sequences tested against HLA-A*68:02 in the same assay as above. Details: source organism: Hepacivirus hominis.

Sequence	IC50
QMWKCLIRL	3.23 µM

Same assay, conditions: source organism: SARS-CoV1

Sequence	IC50
TLLCVLAAL	0.431 µM
FLNRFTTTL	0.286 µM

Same assay, conditions: source organism: Vaccinia virus WR

Sequence	IC50
KLRSSPPIPM	4.28 µM
YTRPEIDVL	0.528 µM
RIEDMFLTSV	1.43 µM
SMHFYGWSL	0.011 µM

These sequences were tested against HLA-A*02:03 in the same assay as above. Details: source organism: Hepacivirus hominis.

Sequence	IC50
QMWKCLIRL	0.317 µM

Same assay, conditions: source organism: Influenza A virus

Sequence	IC50
NMLSTVLGV	0.01 µM

Same assay, conditions: source organism: SARS-CoV1

Sequence	IC50
TLLCVLAAL	0.011 µM
FLNRFTTTL	0.001 µM

Same assay, conditions: source organism: Vaccinia virus WR

Sequence	IC50
KLRSSPPIPM	0.134 µM
YTRPEIDVL	0.074 µM
RIEDMFLTSV	0.071 µM

The sequences below were run against HLA-A*02:01 (assay: IEDB peptide-MHC binding, cellular MHC/competitive/fluorescence; ≥ and ≤ were set here for values at or beyond the usual limits of such assays). Details: source organism: Mammarenavirus machupoense.

Sequence	IC50
SVVQALTSL	9.24 µM

Same assay, conditions: source organism: Mammarenavirus whitewaterense

Sequence	IC50
LQFIVFLLL	51.6 µM

Same assay, conditions: source organism: Vaccinia virus WR

Sequence	IC50
TTDNKITSI	11.5 µM
HIDYNEDMIT	51.4 µM
ATVMNNLSEL	11 µM
TVRSIITDA	10.2 µM
EVVANVIGL	12.2 µM
TMPTYKHLI	27.3 µM
STNFLANAST	≥ 70 µM
EINNELELV	8.27 µM
RIVVYNPST	6.05 µM
LTAVEHIPTM	7.83 µM
NQCMSANEAA	67.6 µM
ILRSIEGEL	8.99 µM
AIKCEGLDV	13.6 µM
DIPVNNNIVL	≥ 70 µM
VISLLSMIT	5 µM
PIVISKALET	26.8 µM
DQSIKIGDI	≥ 70 µM
IIRRSGCRI	≥ 70 µM
SAKRITESIT	≥ 70 µM
EVSYFTNKRT	66.1 µM
KVTINNLKMM	35.7 µM
TISMLIEVIL	≥ 70 µM
EQTSVFSATV	28.6 µM
CMSANEAAIT	6.71 µM

Sequence	IC50
IIRQRNDEI	52.8 µM
GTLDFFKQT	49.5 µM
LAGYILTVL	11.6 µM
ITDAAVAVA	8.52 µM
DASLMDMIT	10.5 µM
IVRLNQCMSA	7.46 µM
TIKCSNLCT	8.78 µM
VIKCMIDEGA	9.87 µM
VAPMPTASTA	25 µM
IIDFLEGALI	≥ 70 µM
PIKFIAEFL	8.24 µM
SILRSIEGEL	5.85 µM
TAVNEEWLT	27 µM
LVFIKPPLIT	38.9 µM
DACKKILSA	14.4 µM
ELNLSKFMM	7 µM
IVARRKDQT	≥ 70 µM
EAAITDAAVA	26.3 µM
EVFINDNGIM	≥ 70 µM
CISQHQHLAI	11 µM
FINKLNGAM	57.8 µM
NAKLTSTET	8.67 µM
AIMFKDDNII	43.8 µM
ALNISSTKT	21.1 µM

Sequence	IC50
LTKIDTTHV	14 µM
DIVSKLTFL	7.81 µM
AVAVAAASST	51.7 µM
DVGYEVIGA	32.3 µM
LVVSTKGDV	25.8 µM
ELEEMVDKGT	≥ 70 µM
DTSCDFESVT	≥ 70 µM
AIIRQRNDEI	17.4 µM
KLIIDREVVA	15.8 µM
ELTTLSRHI	18.6 µM
AASPMLYQLL	16 µM
VTLNAGNIDI	12.9 µM
VTKQDELQAA	14.3 µM
NIKNDVVIL	≥ 70 µM
MVSIDEVAST	36.8 µM
TANVVFRYM	19.3 µM
PVSTNGKIV	≥ 70 µM
IVMTPSPFYT	6.46 µM
DILANRDST	≥ 70 µM
NVTNPFDFM	7.94 µM
DLSKLSKDVV	≥ 70 µM
TVSTIDGRI	≥ 70 µM
SLVSYIKTT	5.37 µM
KTFMLPKQDI	33.6 µM

Sequence	IC50
PTMNNAKLT	19.8 µM
TIRVTSNGL	23.5 µM
DIDEILGIA	≥ 70 µM
DIYYNGNKML	19.6 µM
TIIERSKKFI	45.1 µM
HLLISFDST	28.1 µM
AAITDAAVAV	5.31 µM
IVDDDFISA	11.5 µM
PMNVDNLIM	17.4 µM
LLKDLFPKQT	≥ 70 µM
VATDPDADAI	≥ 70 µM
MTPENDEEQT	≥ 70 µM
LTGSQYYFSM	5.06 µM
PLITLTNVV	6.67 µM
DLVKSYSLI	≥ 70 µM
VIYPNFSKAM	17.8 µM
RIKIDKLRQI	≥ 70 µM
PAVVYSTCT	5.5 µM
ELTASGGKVL	≥ 70 µM
AIFTDASTVA	18.5 µM
AASKQQMLM	≥ 70 µM
